The values below come from patent US20040082762A1 (Janssen / Centocor, published 2004).

This experiment addresses T1, Aβ 1-42 peptide (human, UniProt P05067 672-713).
T1 construct: domain: Aβ 1-42; also called Aβ42
In words: competitive ELISA on Aβ1-42; labelled antibody biotinylated murine 12B4.

T1 sequence (P05067 672-713 limits assumed): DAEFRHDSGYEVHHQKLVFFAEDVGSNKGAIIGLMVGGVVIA

B1: chimeric 12B4 (antibody, V domains shown)
VH: QVTLKESGPGILQPSQTLSLTCSFSGFSLSTNGMGVSWIRQPSGKGLEWLAHIYWDEDKRYNPSLKSRLTISKDTSNNQVFLKITNVDTADTATYYCARRRIIYDVEDYFDYWGQGTTLTVSS
VL: DVLMTQTPLSLPVSLGDQASISCRSSQNIVHSNGNTYLEWYLQKPGQSPKLLIYKVSNRFSGVPDRFSGSGSGTDFTLKISRVEAEDLGVYYCFQGSHVPLTFGAGTKLELK
notes: Murine 12B4 variable regions joined to human gamma 1 and C kappa constant regions (vectors pCMV-hγ1 and pCMV-hκ1), expressed in COS cells; also called chimeric 12B4 antibody
As for B1, the binding result is “binds”.

B2: murine 12B4 (antibody, V domains shown)
VH: QVTLKESGPGILQPSQTLSLTCSFSGFSLSTNGMGVSWIRQPSGKGLEWLAHIYWDEDKRYNPSLKSRLTISKDTSNNQVFLKITNVDTADTATYYCARRRIIYDVEDYFDYWGQGTTLTVSS
VL: DVLMTQTPLSLPVSLGDQASISCRSSQNIVHSNGNTYLEWYLQKPGQSPKLLIYKVSNRFSGVPDRFSGSGSGTDFTLKISRVEAEDLGVYYCFQGSHVPLTFGAGTKLELK
notes: Mouse monoclonal antibody of the IgG2a isotype; also called mAb 12B4; mouse 12B4
B2: the binding result is “binds”.
